Laboratory results as given in patent US20260265352A1, “STABLE PHARMACEUTICAL FORMULATION COMPRISING ANTI-GREMLIN1 ANTIBODY” (SUZHOU TRANSCENTA THERAPEUTICS CO., LTD., priority 2022, published 2026).
Values belong to the molecule of their own block, whether it stands above or below them.

Experiments:
[1] = tested on: esophageal cancer PDX model E7; assay: Tumor growth inhibition in esophageal cancer PDX model; assay type: in vivo, NOD/SCID mice; conditions: 26th day; antibody 20 mg/kg i.p. twice a week, cisplatin 3 mg/kg i.v. once a week, 4 weeks
Excerpt: Human gremlin IHC specifically positive esophageal tumor tissue (E7) was obtained from Beijing Cancer Hospital passage in NOD/SCID mice and established PDX bank. […] Each mouse was subcutaneously inoculated with a small tumor tissue block approximately 3 mm in diameter which sheared from integrated tumor decollement form a tumor bearing mouse. 18 days after inoculation animals with tumor size at about 70 mmn^3 were selected and randomly divided into 4 groups, each group consisting of 8 mice. Then the mice were treated with isotype control+PBS, the anti-GREM1 antibody of the present disclosure at dose of 20 mg/kg, Cisplatin at dose of 3 mg/kg and combination of the anti-GREM1 antibody of the present disclosure and Cisplatin. Isotype control and the anti-GREM1 antibody of the present disclosure were administrated twice a week for 4 weeks by i.p. injection and PBS, while Cisplatin was administrated once a week for 4 weeks by i.v. injection. Animals were sacrificed at the end of the study with CO2 inhalation. Tumor size was measured twice or triple times a week in two dimensions using a caliper (INSIZE) and the volume was expressed in mmA3 using the formula: V=0.5 a*b^2 where a and b are the long and short diameters of the tumor, respectively. Results were analyzed using Prism GraphPad and expressed as mean±S.E.M. Comparisons between two groups were made by T-test, and the difference is considered significant if p is *<0.05 and **<0.01.

[2] = target: T1, human Gremlin/GREM1 protein (Acro) (human, UniProt O60565 25-184); assay: BLI (ForteBio), human GREM1-his on NTA biosensor, antibody at 100, 50 and 25 nM
T1 construct: Bought protein (ACRO); also called hGREM1 (ACRO); human GREM1; not shown: his tag
T1 sequence (looked up): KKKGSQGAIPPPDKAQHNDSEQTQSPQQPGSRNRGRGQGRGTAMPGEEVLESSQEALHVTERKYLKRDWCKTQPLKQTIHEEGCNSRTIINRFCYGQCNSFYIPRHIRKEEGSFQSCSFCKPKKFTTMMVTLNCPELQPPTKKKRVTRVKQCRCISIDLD
Procedure: (§1) The concentration of 0 nM was used as a reference control. The antibody to be tested was diluted to a concentration of 100 nM, 50 nM and 25 nM with a ForteBio kinetic buffer (including PBS with a pH value of 7.4, 0.1% of BSA and 0.002% of Tween-20). […] Then, dissociation was performed in a kinetic buffer for 90 seconds to obtain Koff factor data.

[3] = target: T1, human Gremlin/GREM1 protein (Acro); assay: ELISA, coated hGREM1 (ACRO)
Procedure: (§2) A transparent polystyrene culture plate (BEAVER) was coated with a high pH coating buffer containing 0.5 μg/ml hGREM1 (ACRO) and mouse gremlin (R&D) at 100 μl/well at 4° C. overnight. Then, the culture plate was washed once with PBS and 0.1% of Tween 20 (Sigma) on an automatic culture plate washer. 100 μl of a blocking solution consisting of PBS, 1% of BSA, 1% of standard goat serum and 0.50% of Tween 20 (Sigma) was added into each well for incubation at room temperature for 2 hours. Then, 100 μl of an antibody (started with 2 μg/ml and continuously diluted) in an antibody dilution buffer containing PBS, 1% of BSA, 1% of standard goat serum and 0.01% of Tween 20 was added into each well of the culture plate for incubation at room temperature for 1 hour. Then, the culture plate was washed with 200 μl of a solution containing PBS and 0.1% of Tween 20 for three times, and goat anti-mouse IgG-HRP (Abcam) at a ratio of 1:10000 was added at 100 μl/well for incubation at room temperature for 1 hour. Then, the culture plate was washed with a solution containing PBS and 0.1% of Tween 20 for 3 times. Finally, TMB (Pierce) was added into each well at 100 μl/well, and several minutes later, 50 μl of a termination solution was added into each well. The culture plate was read on a Multiscan FC microplate reader (Thermo Scientific) at 450 nM.

[4] = target: T1, human Gremlin/GREM1 protein (Acro); assay: BLI (ForteBio), human GREM1-his on NTA biosensor
Procedure: as §1

Human GREM1 = target: T2, Human GREM1 (Homo sapiens, UniProt O60565); assay: Binding affinity to human GREM1 through ELISA; conditions: for EC50 of binding to hGremlin-his: Table 17
T2 construct: His; purchased ACRO
T2 sequence (O60565 25-184): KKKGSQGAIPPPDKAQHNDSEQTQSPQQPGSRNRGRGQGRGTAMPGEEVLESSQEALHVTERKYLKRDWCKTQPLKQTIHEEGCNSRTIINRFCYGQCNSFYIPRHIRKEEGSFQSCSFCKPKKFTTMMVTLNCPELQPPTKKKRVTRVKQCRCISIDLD
Procedure: as §2, with “nM. As shown in Table 16 and Table 17, compared with a reference antibody 6245P, the anti-GREM1 antibody used in the present disclosure and other humanized anti-GREM1 antibodies (e.g., Hu14E3_HaLb, Hu14E3_HbLa, Hu14E3_HbLb, Hu14E3_HcLa and Hu14E3_HcLb) have better binding affinity with human GREM1.” for “nM.”

[5] = target: T1, human Gremlin/GREM1 protein (Acro); assay: ELISA, binding to hGremlin-his
Procedure: as §2

[6] = target: modified human GREM1-his (human) (UniProt O60565); assay: blocking ELISA; competitor coated human BMP2; 1 ug/ml modified human GREM1-his detected with anti-his HRP
[7] = target: human Gremlin/GREM1 protein (Acro) (human) (UniProt O60565); assay: ELISA, binding to hGremlin-his
[8] = target: human Gremlin/GREM1 protein (Acro) (human) (UniProt O60565); assay: BLI (ForteBio), human GREM1-his on NTA biosensor, antibody at 100, 50 and 25 nM
[9] = target: modified human GREM1-his (human) (UniProt O60565); assay: blocking ELISA; competitor coated human BMP4; 1 ug/ml modified human GREM1-his detected with anti-his HRP
[10] = target: human Gremlin/GREM1 protein (Acro) (human) (UniProt O60565); assay: ELISA, coated hGREM1 (ACRO)

Molecule: N.N.[Cl][Pt][Cl] [Cisplatin, reference compound]
TGI (%) [1]: 59.79%
Tumor size (mm^3, mean +/− S.E.M) [1]: 479.41 +/− 104.05 mm^3

B1: Hu14E3_HaLa (antibody, human IgG1, kappa, V domains shown)
VH: QVQLVQSGSELKKPGASVKVSCKASGYTFTTYGMAWMRQAPGQGLEWMGWINTLSGEPTYADDFKGRFVFSLDTSVSTAYLQISSLKAEDTAVYYCAREPMDYWGQGTMVTVSS
VL: DVVMTQSPLSLPVTLGQPASISCKSSQSLLDSDGKTYLSWLQQRPGQSPRRLIYLVSKLDSGVPDRFSGSGSGTDFTLKISRVEAEDVGVYYCWQGAHFPLTFGQGTKLEIKR
notes: also called anti-GREM1 antibody used in the present disclosure; humanized 14E3
Kd [2]: < 0.001 nM
EC50 [3]: 6.9 ng/mL
Kd [4]: < 1 nM

B2: Hu14E3_HbLb (antibody, human IgG1, V domains shown)
VH: QIQLVQSGSELKKPGASVKVSCKASGYTFTTYGMAWMRQAPGQGLEWMGWINTLSGEPTYADDFKGRFAFSLDTSVSTAYLQISSLKAEDTAVYYCAREPMDYWGQGTMVTVSS
VL: DVVMTQSPLSLPVTLGQPASISCKSSQSLLDSDGKTYLSWLQQRPGQSPRRLISLVSKLDSGVPDRFSGSGSGTDFTLKISRVEAEDVGVYYCWQGAHFPLTFGQGTKLEIK
notes: also called humanized 14E3
EC50 of binding to hGremlin-his (Human GREM1): 6.2 ng/mL
EC50 [5]: 6.2 ng/mL

B3: Hu14E3_HaLa: humanized 14E3, heavy chain variable region SEQ ID NO: 7, light chain variable region SEQ ID NO: 8; antibody used in the examples (antibody, V domains shown)
VH: QVQLVQSGSELKKPGASVKVSCKASGYTFTTYGMAWMRQAPGQGLEWMGWINTLSGEPTYADDFKGRFVFSLDTSVSTAYLQISSLKAEDTAVYYCAREPMDYWGQGTMVTVSS
VL: DVVMTQSPLSLPVTLGQPASISCKSSQSLLDSDGKTYLSWLQQRPGQSPRRLIYLVSKLDSGVPDRFSGSGSGTDFTLKISRVEAEDVGVYYCWQGAHFPLTFGQGTKLEIK
EC50 (ng/ml) Human GREM1 (Human GREM1; Table 16): 6.90 ng/mL
EC50 of binding to hGremlin-his (Human GREM1): 6.9 ng/mL
TGI (%) [1]: 42.92%
Tumor size (mm^3, mean +/− S.E.M) [1]: 680.59 +/− 163.73 mm^3

B7: Hu14E3_HaLb (antibody, human IgG1, V domains shown)
VH: QVQLVQSGSELKKPGASVKVSCKASGYTFTTYGMAWMRQAPGQGLEWMGWINTLSGEPTYADDFKGRFVFSLDTSVSTAYLQISSLKAEDTAVYYCAREPMDYWGQGTMVTVSS
VL: DVVMTQSPLSLPVTLGQPASISCKSSQSLLDSDGKTYLSWLQQRPGQSPRRLISLVSKLDSGVPDRFSGSGSGTDFTLKISRVEAEDVGVYYCWQGAHFPLTFGQGTKLEIK
notes: also called humanized 14E3
EC50 of binding to hGremlin-his (Human GREM1): 5.6 ng/mL
EC50 [5]: 5.6 ng/mL

Results, then the molecule that gave them:

EC50 of binding to hGremlin-his (Human GREM1): 6.1 ng/mL
EC50 [5]: 6.1 ng/mL
B4: Hu14E3_HcLb (antibody, human IgG1, V domains shown)
VH: QIQLVQSGSELKKPGASVKVSCKASGSTFTTYGMAWMKQAPGQGLTWMGWINTLSGEPTYADDFKGRFAFSLDTSVSTAYLQISSLKAEDTAVYYCAREPMDYWGQGTMVTVSS
VL: DVVMTQSPLSLPVTLGQPASISCKSSQSLLDSDGKTYLSWLQQRPGQSPRRLISLVSKLDSGVPDRFSGSGSGTDFTLKISRVEAEDVGVYYCWQGAHFPLTFGQGTKLEIK
notes: also called humanized 14E3

EC50 of binding to hGremlin-his (Human GREM1): 6.0 ng/mL
EC50 [5]: 6 ng/mL
B5: Hu14E3_HbLa (antibody, human IgG1, V domains shown)
VH: QIQLVQSGSELKKPGASVKVSCKASGYTFTTYGMAWMRQAPGQGLEWMGWINTLSGEPTYADDFKGRFAFSLDTSVSTAYLQISSLKAEDTAVYYCAREPMDYWGQGTMVTVSS
VL: DVVMTQSPLSLPVTLGQPASISCKSSQSLLDSDGKTYLSWLQQRPGQSPRRLIYLVSKLDSGVPDRFSGSGSGTDFTLKISRVEAEDVGVYYCWQGAHFPLTFGQGTKLEIK
notes: also called humanized 14E3

EC50 of binding to hGremlin-his (Human GREM1): 6.6 ng/mL
EC50 [5]: 6.6 ng/mL
B6: Hu14E3_HcLa (antibody, human IgG1, V domains shown)
VH: QIQLVQSGSELKKPGASVKVSCKASGSTFTTYGMAWMKQAPGQGLTWMGWINTLSGEPTYADDFKGRFAFSLDTSVSTAYLQISSLKAEDTAVYYCAREPMDYWGQGTMVTVSS
VL: DVVMTQSPLSLPVTLGQPASISCKSSQSLLDSDGKTYLSWLQQRPGQSPRRLIYLVSKLDSGVPDRFSGSGSGTDFTLKISRVEAEDVGVYYCWQGAHFPLTFGQGTKLEIK
notes: also called humanized 14E3

IC50 [6]: 797 ng/mL
EC50 [7]: 57.5 ng/mL
Kd [8]: 2.58 nM
IC50 [9]: 638 ng/mL
EC50 [10]: 57.5 ng/mL
B8: reference antibody 6245P (antibody, from another filing, IgG4, V domains shown)
VH: EVQLVESGGGLVQPGGSLRLSCAASGFTFNSFWMSWVRQAPGKGLEWVANIKQDGSEKYYVDSVKGRFTISRDNAKNSVYLQMNSLRAEDTAVYYCARDLVTSFDYWGQGTLVTVSS
VL: DIQMTQSPSSLSASVGDRVTITCQASQDINNYLNWYQQKPGKAPKLLIYDASYLETGVPSGFSGSGSGTDFTFTISSLQPEDIATYYCQQYDSLPYTFGQGTKLEIK
